Experimental findings from patent publication US20260199576A1 (KYOTO UNIVERSITY, published 2026) are described below.

In assay [1] the target is T1, human integrin αvβ6 (ACROBiosystems, product number IT6-H52E1) (human, UniProt P06756 31-992; P18564 22-707).
T1 construct: also called histidine-tagged integrin αvβ6; histidine-tagged extracellular domain protein of integrin αvβ6; not shown: linker and basic tail on the β6 chain
As to the kind of experiment: blocking ELISA: integrin αvβ6 coated, antibody added, then fibronectin 2 µg/mL; bound fibronectin detected, inhibition effect (%). Here is the method:
Furthermore, a competitive assay with fibronectin for binding to integrin αvβ6 was performed to confirm the function of the obtained monoclonal antibodies. Briefly, a 96-well microtiter plate was coated with 150 μL/well of 2 μg/mL human integrin αvβ6 (ACROBiosystems, Cat. No. IT6-H52E1) overnight at 4° C., then blocked and incubated with 120 μL of monoclonal antibodies (0.0001-10 μg/mL) for 60 min at room temperature. After washing, the plate was incubated with 100 μL of 2 μg/mL fibronectin (FC010; MilliporeSigma, Burlington, MA) for 60 minutes at room temperature. After washing, an anti-fibronectin antibody (1:5000 dilution; ab2413; Abcam) was added to the plate, and the plate was incubated for 60 min at room temperature. […] After washing, the plate was incubated with 3,3′,5,5′-tetramethylbenzidine for 10 minutes, and the absorbance at 450 nm was measured to detect fibronectin bound to integrin αvβ6 on the solid phase. […] To calculate the binding inhibition rate, blank wells coated with integrin αvβ6 were incubated with fibronectin in the absence of antibody, and the optical density (OD) at 450 nm was measured in the same manner as above. The binding inhibition rate (%) was calculated according to the following formula. […]
Background: ELISA stands for enzyme-linked immunosorbent assay.

Assay [2] deals with T2, Biotinylated human integrin αvβ6 (ACROBiosystems, product number IT6-H82E4) (human, UniProt P06756 31-992; P18564 22-707, biotinylated (Avi tag at the C-terminus) ; Biotin on the Avi tag at the C-terminus of the αv chain; the tag is not in the letters.).
T2 construct: Bought heterodimer; also called biotinylated integrin αvβ6; not shown: basic tail on the β6 chain
As to the kind of experiment: BLI (Octet RED96), biotinylated integrin αvβ6 on biosensor, antibody in solution. As for the experimental part:
Next, the binding affinity of the obtained anti-integrin αvβ6 monoclonal antibodies derived from UC or PSC patients was determined. The KD value was measured by biolayer interferometry using Octet RED96 (Sartorius). A 100 nM solution of the antibody, and serially diluted solutions of biotinylated integrin αvβ6 protein in the range of 200 to 6.25 nM were prepared using a buffer containing 20 mM Tris, 150 mM NaCl, 1 mM CaCl₂, 1 mM MgCl₂, 0.1% human serum albumin (014-27604; Fujifilm Wako Pure Chemical Industries, Ltd.) and 0.02% Tween 20 (1610781; Bio-Rad), and added to a 96-well plate (Greiner; 655209) at 200 μL/well. The biotinylated integrin αvβ6 was allowed to bind for 5 minutes to a biosensor (18-5136; Sartorius) soaked in the buffer. After washing of the biosensor, the biosensor was immersed in each antibody solution for 5 minutes (binding reaction). Then, the sensor was immersed in the buffer solution for 1 minute (dissociation reaction). The binding dissociation constant (KD value) between “integrin αvβ6-each monoclonal antibody” was determined using the analysis software (Octet BLI Analysis) attached to the device.

The target of assay [3] is Integrin αvβ1 (ACRO Biosystems, IT1-H82W6) (UniProt P06756 31-992; P05556 21-728). As to the kind of experiment: adsorption test: UC antibody 1 150 ng, His-tagged integrin 5 or 25 µg/mL and anti-His-tag magnetic agarose; remaining antibody measured by ELISA, adsorption rate. As for the experimental part:
(§1) The concentration of anti-integrin αvβ6 antibodies contained in the recovered solution was measured by ELISA. A microtiter plate was coated with 100 μL/well of 2 μg/mL integrin αvβ6 overnight at 4° C., followed by washing and blocking. After washing, the recovered reaction solution was diluted 10-fold and added at 100 µL/well to the plate, and the plate was incubated at room temperature for 60 minutes. After washing, an HRP-labeled anti-human IgG antibody (50,000-fold dilution; ab6759; Abcam) was added at 100 μL/well to the plate, and the plate was incubated at room temperature for 60 minutes. After washing, the plate was incubated with 3,3′,5,5′-tetramethylbenzidine for 7 minutes, and the absorbance density (OD value) at 450 nm was measured to detect human IgG bound to integrin αvβ6 on the solid phase.
(§2) Anti-histidine tag antibody-labeled magnetic agarose (MBL, D291-10) in the amount of 10 μL (5 μg of anti-his tag antibody), 150 ng of the monoclonal autoantibody derived from an ulcerative colitis patient prepared in Example 2 (UC antibody 1 shown in Table 1), and 5 μg/mL or 25 μg/mL of any of integrins as mentioned below were mixed and reacted by inversion mixing in a total of 500 μL of solution at 4° C. for 12 hours. The solution after the reaction was recovered. As a control, a mixture to which no integrin was added (a mixture of the above-mentioned agarose and autoantibody only) was used to perform the similar reaction. [0157] Integrin αvβ1 (ACRO Biosystems, IT1-H82W6) [0158] Integrin αvβ3 (ACRO Biosystems, IT3-H52E3) [0159] Integrin αvβ5 (ACRO Biosystems, IT5-H52W5) [0160] Integrin αvβ6 (ACRO Biosystems, IT6-H52E1) [0161] Integrin αvβ8 (ACRO Biosystems, IT8-H52W4)
(§3) In the same manner as described in Example 7, the concentration of anti-integrin αvβ6 antibody contained in the recovered solution was determined, and the adsorption rate of anti-integrin αvβ6 antibody in the antibody adsorption reaction was calculated.

In assay [4] the target is Integrin αvβ5 (ACRO Biosystems, IT5-H52W5) (UniProt P06756 31-992; P18084 24-719). Described as above. As for the experimental part: as §1, §2, §3
Assay [5] concerns the target Integrin αvβ3 (ACRO Biosystems, IT3-H52E3) (UniProt P06756 31-992; P05106 27-718). The description is as above. As for the experimental part:
as §1, §2, §3

The target of assay [6] is Integrin αvβ8 (ACRO Biosystems, IT8-H52W4) (UniProt P06756 31-992; P26012 43-684). Described as above. As for the experimental part: as §1, §2, §3
Integrin αvβ8 (ACRO Biosystems, IT8-H52W4), sequence (P06756 31-992, chain 1 of 2): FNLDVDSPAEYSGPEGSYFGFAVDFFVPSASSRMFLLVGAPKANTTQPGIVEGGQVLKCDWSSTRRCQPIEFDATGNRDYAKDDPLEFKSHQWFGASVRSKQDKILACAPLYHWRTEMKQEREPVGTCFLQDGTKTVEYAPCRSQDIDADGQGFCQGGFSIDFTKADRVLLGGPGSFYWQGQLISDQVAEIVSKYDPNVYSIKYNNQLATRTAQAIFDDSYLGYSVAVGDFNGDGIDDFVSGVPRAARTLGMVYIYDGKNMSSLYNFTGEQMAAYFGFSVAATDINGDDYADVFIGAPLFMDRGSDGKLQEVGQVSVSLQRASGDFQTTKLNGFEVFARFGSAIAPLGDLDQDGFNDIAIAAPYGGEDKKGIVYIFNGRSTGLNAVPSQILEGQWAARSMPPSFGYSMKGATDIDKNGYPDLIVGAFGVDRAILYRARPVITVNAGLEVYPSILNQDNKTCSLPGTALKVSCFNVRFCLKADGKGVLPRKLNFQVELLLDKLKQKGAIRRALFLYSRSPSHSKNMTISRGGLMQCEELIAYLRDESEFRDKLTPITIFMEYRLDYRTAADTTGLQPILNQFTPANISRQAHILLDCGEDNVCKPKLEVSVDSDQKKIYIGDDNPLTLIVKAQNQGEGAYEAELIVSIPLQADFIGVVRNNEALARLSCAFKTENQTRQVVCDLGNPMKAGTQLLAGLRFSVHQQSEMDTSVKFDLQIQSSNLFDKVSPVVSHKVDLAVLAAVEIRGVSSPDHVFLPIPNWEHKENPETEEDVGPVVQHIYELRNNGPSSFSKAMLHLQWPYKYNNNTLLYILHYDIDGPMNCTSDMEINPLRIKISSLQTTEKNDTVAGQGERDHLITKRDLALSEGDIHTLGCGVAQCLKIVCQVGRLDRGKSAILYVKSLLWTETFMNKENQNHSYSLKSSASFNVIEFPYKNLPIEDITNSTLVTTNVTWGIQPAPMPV
Integrin αvβ8 (ACRO Biosystems, IT8-H52W4), sequence (P26012 43-684, chain 2 of 2): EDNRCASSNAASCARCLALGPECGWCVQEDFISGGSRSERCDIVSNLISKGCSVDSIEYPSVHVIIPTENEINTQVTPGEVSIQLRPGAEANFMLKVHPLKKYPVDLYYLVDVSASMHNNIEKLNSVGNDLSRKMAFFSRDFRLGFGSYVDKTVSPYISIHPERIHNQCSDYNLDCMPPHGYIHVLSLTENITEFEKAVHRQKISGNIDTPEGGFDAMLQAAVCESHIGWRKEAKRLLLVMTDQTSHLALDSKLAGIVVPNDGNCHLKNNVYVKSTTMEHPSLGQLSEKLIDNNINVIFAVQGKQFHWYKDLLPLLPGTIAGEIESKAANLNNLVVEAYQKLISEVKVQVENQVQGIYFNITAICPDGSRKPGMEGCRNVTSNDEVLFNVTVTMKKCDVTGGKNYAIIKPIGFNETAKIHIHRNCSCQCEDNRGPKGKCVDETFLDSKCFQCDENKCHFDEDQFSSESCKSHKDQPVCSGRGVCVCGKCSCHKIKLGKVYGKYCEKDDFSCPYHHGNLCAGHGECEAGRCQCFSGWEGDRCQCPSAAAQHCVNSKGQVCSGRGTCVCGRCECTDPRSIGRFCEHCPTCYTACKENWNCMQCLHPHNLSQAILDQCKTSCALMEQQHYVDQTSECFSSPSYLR

Integrin αvβ3 (ACRO Biosystems, IT3-H52E3), sequence (P06756 31-992, chain 1 of 2): as the sequence (P06756 31-992, chain 1 of 2) above
Integrin αvβ3 (ACRO Biosystems, IT3-H52E3), sequence (P05106 27-718, chain 2 of 2): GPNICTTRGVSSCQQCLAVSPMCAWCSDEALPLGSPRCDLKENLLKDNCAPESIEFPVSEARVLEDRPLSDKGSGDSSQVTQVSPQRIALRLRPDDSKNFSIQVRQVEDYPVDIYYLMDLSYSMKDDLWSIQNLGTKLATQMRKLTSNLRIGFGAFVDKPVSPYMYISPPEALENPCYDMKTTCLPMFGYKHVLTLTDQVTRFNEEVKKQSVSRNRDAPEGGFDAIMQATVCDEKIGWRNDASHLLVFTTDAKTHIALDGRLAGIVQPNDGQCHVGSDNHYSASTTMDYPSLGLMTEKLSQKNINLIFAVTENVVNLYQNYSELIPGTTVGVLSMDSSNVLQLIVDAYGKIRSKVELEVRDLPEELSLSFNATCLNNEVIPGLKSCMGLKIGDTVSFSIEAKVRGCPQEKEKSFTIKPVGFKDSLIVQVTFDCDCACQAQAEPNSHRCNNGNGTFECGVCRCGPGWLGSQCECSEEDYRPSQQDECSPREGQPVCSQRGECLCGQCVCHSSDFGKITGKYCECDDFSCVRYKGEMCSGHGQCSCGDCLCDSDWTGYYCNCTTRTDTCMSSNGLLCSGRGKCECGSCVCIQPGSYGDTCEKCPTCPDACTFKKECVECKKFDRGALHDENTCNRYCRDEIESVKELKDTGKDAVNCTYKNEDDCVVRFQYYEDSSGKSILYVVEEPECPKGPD
Integrin αvβ1 (ACRO Biosystems, IT1-H82W6), sequence (P06756 31-992, chain 1 of 2): as the sequence (P06756 31-992, chain 1 of 2) above
Integrin αvβ1 (ACRO Biosystems, IT1-H82W6), sequence (P05556 21-728, chain 2 of 2): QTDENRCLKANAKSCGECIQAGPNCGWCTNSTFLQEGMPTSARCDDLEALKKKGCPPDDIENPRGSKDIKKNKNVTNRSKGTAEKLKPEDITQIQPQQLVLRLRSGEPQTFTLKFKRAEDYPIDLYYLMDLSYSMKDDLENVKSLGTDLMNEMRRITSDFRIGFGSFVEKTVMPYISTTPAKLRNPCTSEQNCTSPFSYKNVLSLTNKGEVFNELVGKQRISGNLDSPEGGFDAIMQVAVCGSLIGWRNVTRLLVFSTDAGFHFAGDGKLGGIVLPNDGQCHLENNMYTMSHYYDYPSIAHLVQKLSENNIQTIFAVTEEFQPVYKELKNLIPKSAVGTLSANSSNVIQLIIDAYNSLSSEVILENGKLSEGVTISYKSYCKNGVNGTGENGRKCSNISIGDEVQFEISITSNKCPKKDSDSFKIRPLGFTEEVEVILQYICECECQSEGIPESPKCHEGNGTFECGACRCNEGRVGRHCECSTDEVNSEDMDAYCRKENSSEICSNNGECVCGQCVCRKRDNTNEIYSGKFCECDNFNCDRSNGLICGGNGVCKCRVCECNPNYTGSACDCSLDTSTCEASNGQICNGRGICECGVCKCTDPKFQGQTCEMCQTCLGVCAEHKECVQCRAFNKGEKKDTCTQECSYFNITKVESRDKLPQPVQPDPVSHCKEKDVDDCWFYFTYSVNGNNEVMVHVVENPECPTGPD
Integrin αvβ5 (ACRO Biosystems, IT5-H52W5), sequence (P06756 31-992, chain 1 of 2): as the sequence (P06756 31-992, chain 1 of 2) above
Integrin αvβ5 (ACRO Biosystems, IT5-H52W5), sequence (P18084 24-719, chain 2 of 2): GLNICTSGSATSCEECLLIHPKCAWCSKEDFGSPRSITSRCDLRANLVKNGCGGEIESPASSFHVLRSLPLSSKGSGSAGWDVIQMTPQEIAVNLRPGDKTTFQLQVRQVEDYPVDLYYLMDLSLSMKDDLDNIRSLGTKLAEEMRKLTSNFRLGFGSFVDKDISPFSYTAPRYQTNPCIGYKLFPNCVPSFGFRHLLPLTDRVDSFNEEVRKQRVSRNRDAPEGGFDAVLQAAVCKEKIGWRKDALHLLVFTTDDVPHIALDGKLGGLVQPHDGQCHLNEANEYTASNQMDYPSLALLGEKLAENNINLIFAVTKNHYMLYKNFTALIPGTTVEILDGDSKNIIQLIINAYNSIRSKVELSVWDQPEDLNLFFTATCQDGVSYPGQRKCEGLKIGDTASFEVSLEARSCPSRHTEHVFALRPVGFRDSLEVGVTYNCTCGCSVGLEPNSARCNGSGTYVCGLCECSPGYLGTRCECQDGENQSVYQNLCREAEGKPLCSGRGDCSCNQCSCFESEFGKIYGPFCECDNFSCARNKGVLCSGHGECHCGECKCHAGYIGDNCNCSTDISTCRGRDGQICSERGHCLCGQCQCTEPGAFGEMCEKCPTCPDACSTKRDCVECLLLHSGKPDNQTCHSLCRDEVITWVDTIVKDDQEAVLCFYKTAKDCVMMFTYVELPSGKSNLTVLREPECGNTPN
T1 sequence (P06756 31-992 limits assumed, chain 1 of 2): as the sequence (P06756 31-992, chain 1 of 2) above
T1 sequence (P18564 22-707 limits assumed, chain 2 of 2): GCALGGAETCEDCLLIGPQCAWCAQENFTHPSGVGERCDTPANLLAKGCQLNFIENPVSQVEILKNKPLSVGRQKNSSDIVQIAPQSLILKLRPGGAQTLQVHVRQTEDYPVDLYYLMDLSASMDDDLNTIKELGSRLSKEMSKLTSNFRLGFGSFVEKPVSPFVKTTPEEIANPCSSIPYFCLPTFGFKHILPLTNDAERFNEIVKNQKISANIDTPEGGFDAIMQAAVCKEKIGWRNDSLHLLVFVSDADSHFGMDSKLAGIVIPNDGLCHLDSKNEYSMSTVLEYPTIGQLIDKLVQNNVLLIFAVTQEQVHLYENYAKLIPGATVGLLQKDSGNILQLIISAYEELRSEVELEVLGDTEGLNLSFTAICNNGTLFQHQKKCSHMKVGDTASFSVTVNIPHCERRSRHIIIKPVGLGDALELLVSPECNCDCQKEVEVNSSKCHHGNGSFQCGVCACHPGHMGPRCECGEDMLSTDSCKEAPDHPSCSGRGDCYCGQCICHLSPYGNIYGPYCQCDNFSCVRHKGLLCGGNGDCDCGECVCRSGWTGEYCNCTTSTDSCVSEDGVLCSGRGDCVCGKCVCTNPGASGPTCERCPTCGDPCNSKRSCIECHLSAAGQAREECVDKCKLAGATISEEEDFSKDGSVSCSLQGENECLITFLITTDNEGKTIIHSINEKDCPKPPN
T2 sequence (P06756 31-992 limits assumed, chain 1 of 2): as the sequence (P06756 31-992, chain 1 of 2) above
T2 sequence (P18564 22-707 limits assumed, chain 2 of 2): as the sequence (P18564 22-707 limits assumed, chain 2 of 2) above

B1: UC antibody 1 (antibody, V domains shown)
VH: QVQLVESGGGVVQPGRSLRLSCAASGFTFSSYGMHWVRQAPGKGLEWVAFISYDGINKYYADSVKGRFTISRDNSKDTLYLQMNSLRAEDTAVYYCAKVIPRIRGSGDKAGIKDYYYYGMDVWGQGTTVTVSS
VL: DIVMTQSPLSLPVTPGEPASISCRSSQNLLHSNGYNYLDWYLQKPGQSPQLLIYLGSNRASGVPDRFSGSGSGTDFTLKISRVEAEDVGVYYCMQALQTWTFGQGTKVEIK
notes: Human monoclonal IgG from a UC patient, expressed in CHO cells; also called monoclonal autoantibody derived from an ulcerative colitis patient; anti-integrin αvβ6 antibody (UC antibody 1)
In general, Kd refers to the free concentration of one partner at which half of the binding sites on the other are occupied at equilibrium, for simple one-to-one binding. For B1, the “IC50 (read off the curve)” value in assay [1] was approximately 0.2 µg/mL. The molecule also had a Kd in assay [2] of 4.54 nM. The binding result in assay [3], in assay [4], in assay [5] and in assay [6] was “no binding (tested: 25 µg/mL)” in each case.
